# Measurements as given in patent publication US20090123940A1 (Johns Hopkins, published 2009).
# T1: native NPR of mouse brain (mouse, UniProt Q99J85 1-493)
# T1 sequence (looked up): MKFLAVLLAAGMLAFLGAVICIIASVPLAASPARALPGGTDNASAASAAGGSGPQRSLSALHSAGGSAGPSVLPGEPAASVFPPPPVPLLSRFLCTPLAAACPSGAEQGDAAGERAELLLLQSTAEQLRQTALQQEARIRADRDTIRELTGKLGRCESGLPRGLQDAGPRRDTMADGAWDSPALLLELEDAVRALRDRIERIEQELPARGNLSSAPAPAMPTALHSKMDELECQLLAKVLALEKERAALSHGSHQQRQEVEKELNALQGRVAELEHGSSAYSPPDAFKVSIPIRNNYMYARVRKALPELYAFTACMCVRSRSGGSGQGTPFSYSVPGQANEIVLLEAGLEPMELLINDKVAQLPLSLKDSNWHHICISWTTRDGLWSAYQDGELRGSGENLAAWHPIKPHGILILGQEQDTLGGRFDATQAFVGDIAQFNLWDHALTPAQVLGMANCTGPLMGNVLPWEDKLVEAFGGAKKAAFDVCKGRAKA
# T2: neuronal pentraxin receptor (NPR), full length, rat (rat, UniProt O35764 1-494)
# T2 construct: whole, on cells; Stands for NPR expressed in HEK293T cells and for native NPR of rat brain extracts; also called full-length NPR; wtNPR
# T2 sequence (looked up): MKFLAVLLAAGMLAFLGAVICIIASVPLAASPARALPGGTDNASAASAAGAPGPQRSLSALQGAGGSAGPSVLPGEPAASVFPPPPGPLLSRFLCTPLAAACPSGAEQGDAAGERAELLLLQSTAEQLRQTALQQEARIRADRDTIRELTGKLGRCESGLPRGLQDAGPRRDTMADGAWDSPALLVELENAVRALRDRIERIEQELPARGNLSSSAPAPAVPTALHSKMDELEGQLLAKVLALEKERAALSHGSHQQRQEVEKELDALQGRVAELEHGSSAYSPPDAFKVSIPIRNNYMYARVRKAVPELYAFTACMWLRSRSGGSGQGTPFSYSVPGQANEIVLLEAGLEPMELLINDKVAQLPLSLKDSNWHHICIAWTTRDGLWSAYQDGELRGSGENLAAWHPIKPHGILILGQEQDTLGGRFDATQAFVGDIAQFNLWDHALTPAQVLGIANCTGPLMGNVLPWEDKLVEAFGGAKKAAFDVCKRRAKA
# B1: native Narp of mouse brain (ligand, UniProt O70340 15-429, looked up)
# chain: AGRAQDSPIPGSRFVCTALPPEAARAGCPLPAMPMQGGALSPEEELRAAVLQLRETVVQQKETLGAQREAIRELTGKLARCEGLAGGKARGTGKDTMGDLPRDPGHVVEQLSRSLQTLKDRLESLELQLRTNVSNAGLPSDFREVLQRRLGELERQLLRKVAELEDEKSLLHNETSAHRQKTESTLNALLQRVTELERGNSAFKSPDAFKVSLPLRTNYLYGKIKKTLPELYAFTICLWLRSSASPGIGTPFSYAVPGQANEIVLIEWGNNPIELLINDKVAQLPLFVSDGKWHHICITWTTRDGMWEAFQDGEKLGTGENLAPWHPIKPGGVLILGQEQDTVGGRFDATQAFVGELSQFNIWDRVLRAQEIINIANCSTNMPGNIIPWVDNNVDVFGGASKWPVETCEERLLDL
# B2: Narp (C1, 3S)-myc, Narp mutant in which cysteines 14 and 79 are mutated to serines (ligand)
# chain: QAQDNPIPGSRFVSTALPPEAARAGCPLPAMPMQGGALSPEEELRAAVLHWRETVVQQKETLGAQREAIRELTSKLARSEGLAGGKARGTGATGKDTMGDLPRDPGHVVEQLSRSLQTLKDRLESLELQLHTNASNAGLPSDFREVLQRRLGELERQLLRKVAELEDEKSLLHNETSAHRQKTENTLNALLQRVTELERGNSAFKSPDAFKVSLPLRTNYLYGKIKKTLPELYAFTICLWLRSSASPGIGTPFSYAVPGQANEIVLIEWGNNPIELLINDKVAQLPLFVSDGKWHHICITWTTRDGMWEAFQDGEKLGTGENLAPWHPIKPGGVLILGQEQDTVGGRFDATQAFVGELSQFNIWDRVLRAQEIINIANCSTNMPGNIIPWVDNNVDVFGGASKWPVETCEERLLDL
# notes: also called Narp (C1, 2S); mutant Narp; not shown: C-terminal myc tag
# B3: C-terminal myc-tagged version of Narp (myc-Narp) (ligand)
# chain: QAQDNPIPGSRFVCTALPPEAARAGCPLPAMPMQGGALSPEEELRAAVLHWRETVVQQKETLGAQREAIRELTSKLARCEGLAGGKARGTGATGKDTMGDLPRDPGHVVEQLSRSLQTLKDRLESLELQLHTNASNAGLPSDFREVLQRRLGELERQLLRKVAELEDEKSLLHNETSAHRQKTENTLNALLQRVTELERGNSAFKSPDAFKVSLPLRTNYLYGKIKKTLPELYAFTICLWLRSSASPGIGTPFSYAVPGQANEIVLIEWGNNPIELLINDKVAQLPLFVSDGKWHHICITWTTRDGMWEAFQDGEKLGTGENLAPWHPIKPGGVLILGQEQDTVGGRFDATQAFVGELSQFNIWDRVLRAQEIINIANCSTNMPGNIIPWVDNNVDVFGGASKWPVETCEERLLDL
# notes: also called myc-tagged Narp; myc-tagged full length Narp; not shown: C-terminal myc tag
# B4: Narp (C1, 2, 3S)-myc, Narp mutant in which cysteines 14, 26, and 79 are mutated to serines (ligand)
# chain: QAQDNPIPGSRFVSTALPPEAARAGSPLPAMPMQGGALSPEEELRAAVLHWRETVVQQKETLGAQREAIRELTSKLARSEGLAGGKARGTGATGKDTMGDLPRDPGHVVEQLSRSLQTLKDRLESLELQLHTNASNAGLPSDFREVLQRRLGELERQLLRKVAELEDEKSLLHNETSAHRQKTENTLNALLQRVTELERGNSAFKSPDAFKVSLPLRTNYLYGKIKKTLPELYAFTICLWLRSSASPGIGTPFSYAVPGQANEIVLIEWGNNPIELLINDKVAQLPLFVSDGKWHHICITWTTRDGMWEAFQDGEKLGTGENLAPWHPIKPGGVLILGQEQDTVGGRFDATQAFVGELSQFNIWDRVLRAQEIINIANCSTNMPGNIIPWVDNNVDVFGGASKWPVETCEERLLDL
# notes: also called mutant Narp; not shown: C-terminal myc tag
# B5: native neuronal pentraxin 1 (NP1) of mouse brain (ligand, UniProt Q62443 23-432, looked up)
# chain: QDFGPTRFICTSVPVDADMCAASVAAGGAEELRSNVLQLRETVLQQKETILSQKETIRELTTKLGRCESQSTLDSGPGEARSGGGRKQPGSGKNTMGDLSRTPAAETLSQLGQTLQSLKTRLENLEQYSRLNSSSQTNSLKDLLQSKIDDLERQVLSRVNTLEEGKGGPKNDTEERAKIESALTSLHQRISELEKGQKDNRPGDKFQLTFPLRTNYMYAKVKKSLPEMYAFTVCMWLKSSAAPGVGTPFSYAVPGQANELVLIEWGNNPMEILINDKVAKLPFVINDGKWHHICVTWTTRDGVWEAYQDGTQGGNGENLAPYHPIKPQGVLVLGQEQDTLGGGFDATQAFVGELAHFNIWDRKLTPGEVYNLATCSSKALSGNVIAWAESQIEIFGGATKWTFEACRQIN
# How the values were obtained:
# [1] = biological target: T1, native NPR of mouse brain; experiment: co-IP from mouse brain lysate with a rabbit antibody to Narp; knockout lysates as controls
# From the text: (§1) Narp and NP1 form highly organized homo- and hetero-multimer complexes that are covalently linked by N-terminal disulfide bonds (Xu et al., supra). Moreover, NPR and Narp formed heteromultimer complexes when coexpressed in HEK293T cells. Heteromultimer complex formation is dependent on the first and third cysteines of NPs that flank the first coiled-coil domain (Xu et al., supra). NPR was co-expressed with mutants of Narp, in which two or all three of the cysteines are mutated to serine. In mutant “Narp (C1, 2S),” the cysteines at positions 14 and […] were mutated to serines, and in mutant “Narp (C1, 2, 3S)” the cysteines at positions 14, 26, and 79 were mutated to serines. […] Thus, it appeared that NPR and Narp formed heterocomplexes that are stabilized by disulfide bonds. To examine NP complexes in brain, lysates from a control mouse were prepared and immunoprecipitated with rabbit antibody specific to NP1 or Narp. Lysates from knockout mice NP1 KO, Narp KO and combined NP1/Narp/NPR KO (NP TKO) were also utilized as controls. […] The ˜25 kDa band, presumptive NTF-NPR, also specifically co-IPed with both Narp and NP1. […] The pentraxin domain of Narp and NP1 is required for interaction with AMPAR.
# [2] = biological target: T2, neuronal pentraxin receptor (NPR), full …; experiment: co-IP from co-transfected HEK293T cells
# From the text: as §1
# (§2) To determine if NPR would interact with AMPAR, AMPAR subunits from GluR1 or GluR6 were HA tagged (GluR1-HA and GluR6-HA, respectively) were co-transfected with myc-tagged Narp (Narp-myc) or NPR(NPR-myc) into HEK293T cells. Lysates were assayed for co-immunoprecipitation. […] Similarly, GluR1-HA but not GluR6-HA co-IPed with NPR-myc.
# [3] = biological target: T3, GluR6-HA (HA tagged GluR6 of Example 10) (UniProt P42260 32-908, limits assumed); experiment: co-IP from co-transfected HEK293T cells
# T3 construct: whole, on cells; not shown: HA tag
# T3 sequence (P42260 32-908 limits assumed): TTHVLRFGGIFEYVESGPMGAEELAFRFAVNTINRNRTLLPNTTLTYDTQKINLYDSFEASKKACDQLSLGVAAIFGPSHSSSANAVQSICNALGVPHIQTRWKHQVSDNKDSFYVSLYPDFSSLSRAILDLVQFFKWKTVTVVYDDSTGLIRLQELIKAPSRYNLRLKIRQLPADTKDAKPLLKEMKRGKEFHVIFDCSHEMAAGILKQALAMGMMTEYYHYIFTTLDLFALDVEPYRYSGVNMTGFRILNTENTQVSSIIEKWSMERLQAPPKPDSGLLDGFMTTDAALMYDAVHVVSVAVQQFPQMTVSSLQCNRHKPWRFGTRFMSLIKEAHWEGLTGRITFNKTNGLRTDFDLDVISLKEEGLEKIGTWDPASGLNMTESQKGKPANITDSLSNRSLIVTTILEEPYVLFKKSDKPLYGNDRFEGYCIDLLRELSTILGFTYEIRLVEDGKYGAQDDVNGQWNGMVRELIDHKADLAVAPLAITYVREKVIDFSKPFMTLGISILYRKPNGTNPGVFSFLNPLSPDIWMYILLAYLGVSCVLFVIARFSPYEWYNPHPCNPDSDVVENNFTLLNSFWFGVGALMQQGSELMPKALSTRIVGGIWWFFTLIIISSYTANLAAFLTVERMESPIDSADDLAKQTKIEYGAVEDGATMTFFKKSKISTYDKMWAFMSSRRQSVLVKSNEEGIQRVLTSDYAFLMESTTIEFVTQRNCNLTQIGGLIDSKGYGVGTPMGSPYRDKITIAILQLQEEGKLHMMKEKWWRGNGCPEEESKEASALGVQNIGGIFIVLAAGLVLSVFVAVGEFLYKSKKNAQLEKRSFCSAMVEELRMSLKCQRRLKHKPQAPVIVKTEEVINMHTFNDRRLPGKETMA
# From the text: as §1, §2
# [4] = biological target: T1, native NPR of mouse brain; experiment: co-IP from mouse brain lysate with a rabbit antibody to NP1; knockout lysates as controls
# From the text: as §1
binder,measurement,setting,value
B1,binding result,[1],binds
B2,binding result,[2],no binding
B3,binding result,[3],no binding
B4,binding result,[2],no binding
B5,binding result,[4],binds
